Data reported in US20220177587A1, “METHODS AND USES OF VARIANT CD80 FUSION PROTEINS AND RELATED CONSTRUCTS” (Alpine Immune Sciences, Inc., priority 2018, published 2022).

Legend:
huCTLA4 = huCTLA4 (Homo sapiens, UniProt P16410); assay: Flow binding to CHO cells stably expressing CTLA4; design: huCTLA4 and huPD-L1, full-length mammalian surface expression constructs were generated; expressed in transfected cells; host or cells: CHO cells, lentiviral transduction, sorted to >98% purity; conditions: CHO cells stably expressing CTLA4
huCTLA4, sequence (P16410 36-223): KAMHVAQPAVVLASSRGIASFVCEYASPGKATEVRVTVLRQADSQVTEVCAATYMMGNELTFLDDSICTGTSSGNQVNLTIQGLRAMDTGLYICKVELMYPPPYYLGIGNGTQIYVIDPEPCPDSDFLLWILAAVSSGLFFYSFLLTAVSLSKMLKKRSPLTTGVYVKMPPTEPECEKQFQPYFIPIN
Procedure: (§1) Binding of selected immunomodulatory fusion proteins to cognate binding partners was assessed. […] Cells were sorted in a Bio-Rad S3 Cell Sorter (Bio-Rad Corp., USA) to >98% purity. Jurkat/IL2 reporter cells, which endogenously express CD28, were used to detect binding to CD28.
(§2) For staining and analysis by flow cytometry, 100,000 cells of appropriate transfected cells were plated in 96-well round bottom plates. Cells were spun down and resuspended in staining buffer (phosphate buffered saline (PBS), 1% bovine serum albumin (BSA), and 0.1% sodium azide) for 20 minutes to block non-specific binding. […] Primary staining was performed on ice for 45 minutes, before washing cells in staining buffer twice. Phycoerythrin (PE)-conjugated anti-human Fc (Jackson ImmunoResearch, USA) was diluted 1:150, added to cells and incubated another 30 minutes on ice. Cells were then washed twice with 150 μL/well stain buffer, fixed in 2% formaldehyde/PBS, and analyzed on Intellicyt flow cytometer (Intellicyt Corp., USA). PE Mean Fluorescence Intensity (MFI) was calculated for each cell type with FlowJo Version 10 software (FlowJo LLC, USA).
(§3) Binding assays were carried out to assess the specificity and affinity of multivalent proteins to cell-expressed CTLA-4, CD28, and PD-L1 counter structures.
(§4) The EC50 for binding also was determined.

CD28 [1] = target: T1, CD28 (Homo sapiens, UniProt P10747); assay: Jurkat/IL2 + CHO/OKT3 +/- PD-L1 reporter assay: PD-L1-dependent CD28 costimulation; format: cell-based; design: host or cells: Jurkat cells expressing an IL-2-luciferase reporter; conditions: Table E22; Jurkat/IL2 + CHO/OKT3/PD-L1; CD80 Conc 5.0 nM
Procedure: Jurkat cells were then plated at 50 μL/well for a total of 100,000 cells per well.
To each well, 25 μL of test protein was added to the Jurkat cells. […] The Jurkat cells with test or control proteins were incubated for 15 minutes at room temperature. CHO-derived artificial antigen presenting cells (aAPC) displaying transduced cell surface anti-CD3 single chain Fv (OKT3) (i.e., no PD-L1), or OKT3 and PD-L1 (i.e., +PD-L1), were brought to 0.8×10^6 cells/mL, and 25 μL of cells were added to each well, bringing the final volume of each well to 100 μL. […] Jurkat cells and CHO cells were incubated for 5 hours at 37 degrees Celsius in a humidified 5% CO2 incubation chamber. Plates were then removed from the incubator and acclimated to room temperature for 15 minutes. 100 μL of a cell lysis and luciferase substrate solution (BioGlo luciferase reagent, Promega) were added to each well and the plates were incubated on an orbital shaker for 10 minutes. Luminescence was measured with a 1 second per well integration time using a BioTek Cytation luminometer, and a relative luminescence value (RLU) was determined for each test sample.

huPD-L1 = huPD-L1 (Homo sapiens, UniProt Q9NZQ7); assay: Flow binding to CHO cells stably expressing PD-L1; design: huCTLA4 and huPD-L1, full-length mammalian surface expression constructs were generated; expressed in transfected cells; host or cells: CHO cells, lentiviral transduction, sorted to >98% purity; conditions: CHO cells stably expressing PD-L1
huPD-L1, sequence (Q9NZQ7 19-290): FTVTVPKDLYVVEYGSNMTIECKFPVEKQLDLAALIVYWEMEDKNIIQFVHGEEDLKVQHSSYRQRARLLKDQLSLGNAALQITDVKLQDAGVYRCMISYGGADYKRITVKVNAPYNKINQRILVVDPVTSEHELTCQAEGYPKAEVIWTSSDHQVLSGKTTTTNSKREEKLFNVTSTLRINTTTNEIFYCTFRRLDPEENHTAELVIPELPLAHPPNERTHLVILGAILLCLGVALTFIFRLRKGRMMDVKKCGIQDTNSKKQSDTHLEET
Procedure: as §1, §2, §3, §4

CD28 [2] = target: T1, CD28; assay: Flow binding to Jurkat/IL2 reporter cells (CD28); design: host or cells: Jurkat cells expressing an IL-2-luciferase reporter
Procedure: as §1, §2, §3, §4

[3] = Table E10, 33.3 nM, Jurkats (CD28)
[4] = Table E20, Jurkats (CD28), 33.3 nM
[5] = Table E23, CD80 IgV-Fc (inert) at 33.3 nM, Jurkat (CD28)
[6] = Table E23, CD80 IgV-Fc (inert) at 33.3 nM

Substance	CTLA4 MFI at 33.3 nM (huCTLA4; Table E20, 33.3 nM)	Relative Luciferase Units (RLU), CD80 Conc 5.0 nM (CD28 [1]) [RLU]	PD-L1 MFI at 33.3 nM (huPD-L1; Table E20, 33.3 nM)	further results
H18Y/E35D/M47L/V68M/A71G/D90G	19892	1028	29944	–
CD80 (E88D/K89R/D90K/A91G/F92Y/K93R) ECD-Fc: variant full CD80 ECD fused to effector human IgG1 Fc (SEQ ID NO:1527)	–	–	–	Jurkat/CD28 MFI at 66.7 nM (CD28 [2]; 66.7 nM): 4049; EC50 (CD28 [2]; flow binding, read-out: Jurkat/CD28 EC50): > 200 nM
Inert Fc	–	–	–	CD28 MFI at 33.3 nM (CD28 [2]; [3]): 23; CTLA4 MFI at 33.3 nM (huCTLA4; Table E10, 33.3 nM): 65.7; PD-L1 MFI at 33.3 nM (huPD-L1; Table E10, 33.3 nM): 41
WT CD80 ECD-Fc (Abcam)	–	–	–	CD28 MFI at 33.3 nM (CD28 [2]; Table E19, Jurkats (CD28), 33.3 nM): 709; PD-L1 MFI at 33.3 nM (huPD-L1; Table E19, 33.3 nM): 128
A26E/E35D/M47L/A71G/D90G	22127	1132	14550	–
H18Y/A26E/M47L/A71G/D90G	25420	1036	–	CD28 MFI at 33.3 nM (CD28 [2]; [4]): 2047
A26E/E35D/M47L/V68M/A71G	24587	1010	27806	–
E35D/M47L/V68M/A71G/D90G	26007	–	29377	CD28 MFI at 33.3 nM (CD28 [2]; [4]): 3072
H18Y/A26E/E35D/M47L/V68M	20015	895	24683	–
H18Y/E35D/M47L/A71G/D90G	22983	851	13327	–
Fc Control	37.9	–	77.1	CD28 MFI at 33.3 nM (CD28 [2]; [4]): 15.4; CD28 MFI at 33.3 nM (CD28 [2]; [5]): 81; CTLA4 MFI at 33.3 nM (huCTLA4; Table E19, 33.3 nM): 52; CTLA4 MFI at 33.3 nM (huCTLA4; [6]): 194; PD-L1 MFI at 33.3 nM (huPD-L1; Table E19, 33.3 nM): 44; PD-L1 MFI at 33.3 nM (huPD-L1; [6]): 185
H18Y/E35D/M47L/V68M/D90G	–	852	27410	CD28 MFI at 33.3 nM (CD28 [2]; [4]): 3389
A26E/M47L/V68M/A71G/D90G	21807	–	28139	–
H18Y/A26N/E35D/M47F/V68M/A71G/D90G	–	–	–	CD28 MFI at 33.3 nM (CD28 [2]; [5]): 82.2; PD-L1 MFI at 33.3 nM (huPD-L1; [6]): 26510
WT CD80 ECD-Fc H22.6	–	–	–	CD28 MFI at 33.3 nM (CD28 [2]; [3]): 43; PD-L1 MFI at 33.3 nM (huPD-L1; Table E10, 33.3 nM): 46.3
